Assay results as given in IntAct's records for PubMed 9819391.

Key:
src_chick SRC [1] = target: src_chick SRC (UniProt P00523)
crk_human CRK = crk_human CRK (UniProt P46108)
src_chick SRC [2] = target: src_chick SRC (UniProt P00523); remark: listed apart in the source

Sequence of crk_human CRK (P46108 whole entry): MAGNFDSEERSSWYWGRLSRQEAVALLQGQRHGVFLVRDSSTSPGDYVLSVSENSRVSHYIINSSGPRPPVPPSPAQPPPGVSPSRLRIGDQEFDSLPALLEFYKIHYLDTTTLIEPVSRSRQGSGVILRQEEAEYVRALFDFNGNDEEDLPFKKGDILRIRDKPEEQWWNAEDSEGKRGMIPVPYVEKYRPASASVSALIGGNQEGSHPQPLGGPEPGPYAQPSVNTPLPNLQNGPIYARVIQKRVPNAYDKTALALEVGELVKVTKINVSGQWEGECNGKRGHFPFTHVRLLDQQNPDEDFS
Sequence of Arf-GAP with SH3 domain, ANK repeat and PH domain-containing protein 1 (Mus musculus), Q9QWY8-1 R811A (Q9QWY8 whole entry R811A, the tested form may be a part): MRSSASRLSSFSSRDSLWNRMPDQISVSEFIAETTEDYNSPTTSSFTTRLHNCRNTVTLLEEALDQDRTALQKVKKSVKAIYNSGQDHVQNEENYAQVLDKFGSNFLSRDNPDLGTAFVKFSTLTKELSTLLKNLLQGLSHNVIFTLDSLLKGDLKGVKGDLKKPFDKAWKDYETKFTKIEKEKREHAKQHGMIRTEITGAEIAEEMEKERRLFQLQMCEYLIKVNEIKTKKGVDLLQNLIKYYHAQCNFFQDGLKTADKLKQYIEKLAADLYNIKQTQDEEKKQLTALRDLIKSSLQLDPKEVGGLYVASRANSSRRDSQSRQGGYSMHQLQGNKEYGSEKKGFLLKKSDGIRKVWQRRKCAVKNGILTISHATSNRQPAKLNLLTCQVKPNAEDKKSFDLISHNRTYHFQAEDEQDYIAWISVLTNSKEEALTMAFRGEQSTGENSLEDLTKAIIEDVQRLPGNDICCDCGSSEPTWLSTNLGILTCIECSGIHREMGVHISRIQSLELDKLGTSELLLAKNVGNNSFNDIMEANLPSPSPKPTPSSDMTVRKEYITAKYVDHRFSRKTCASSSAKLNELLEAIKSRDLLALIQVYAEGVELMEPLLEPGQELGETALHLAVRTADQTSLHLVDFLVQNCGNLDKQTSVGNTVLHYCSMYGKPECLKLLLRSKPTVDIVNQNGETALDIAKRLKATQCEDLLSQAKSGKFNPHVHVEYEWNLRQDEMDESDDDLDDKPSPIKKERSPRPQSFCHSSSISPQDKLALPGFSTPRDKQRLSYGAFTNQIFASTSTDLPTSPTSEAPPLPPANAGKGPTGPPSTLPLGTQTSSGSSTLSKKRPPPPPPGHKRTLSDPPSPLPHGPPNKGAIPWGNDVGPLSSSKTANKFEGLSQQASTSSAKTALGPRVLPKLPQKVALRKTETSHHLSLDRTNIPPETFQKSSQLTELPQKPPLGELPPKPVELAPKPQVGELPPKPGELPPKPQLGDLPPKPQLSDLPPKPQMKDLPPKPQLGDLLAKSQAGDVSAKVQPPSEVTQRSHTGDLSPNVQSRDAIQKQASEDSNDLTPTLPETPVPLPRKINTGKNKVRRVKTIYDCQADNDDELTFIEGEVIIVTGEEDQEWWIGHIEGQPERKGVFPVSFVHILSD
Sequence of Arf-GAP with SH3 domain, ANK repeat and PH domain-containing protein 1 (Mus musculus), Q9QWY8-1 P910A;P913A (Q9QWY8 whole entry P910A/P913A, the tested form may be a part): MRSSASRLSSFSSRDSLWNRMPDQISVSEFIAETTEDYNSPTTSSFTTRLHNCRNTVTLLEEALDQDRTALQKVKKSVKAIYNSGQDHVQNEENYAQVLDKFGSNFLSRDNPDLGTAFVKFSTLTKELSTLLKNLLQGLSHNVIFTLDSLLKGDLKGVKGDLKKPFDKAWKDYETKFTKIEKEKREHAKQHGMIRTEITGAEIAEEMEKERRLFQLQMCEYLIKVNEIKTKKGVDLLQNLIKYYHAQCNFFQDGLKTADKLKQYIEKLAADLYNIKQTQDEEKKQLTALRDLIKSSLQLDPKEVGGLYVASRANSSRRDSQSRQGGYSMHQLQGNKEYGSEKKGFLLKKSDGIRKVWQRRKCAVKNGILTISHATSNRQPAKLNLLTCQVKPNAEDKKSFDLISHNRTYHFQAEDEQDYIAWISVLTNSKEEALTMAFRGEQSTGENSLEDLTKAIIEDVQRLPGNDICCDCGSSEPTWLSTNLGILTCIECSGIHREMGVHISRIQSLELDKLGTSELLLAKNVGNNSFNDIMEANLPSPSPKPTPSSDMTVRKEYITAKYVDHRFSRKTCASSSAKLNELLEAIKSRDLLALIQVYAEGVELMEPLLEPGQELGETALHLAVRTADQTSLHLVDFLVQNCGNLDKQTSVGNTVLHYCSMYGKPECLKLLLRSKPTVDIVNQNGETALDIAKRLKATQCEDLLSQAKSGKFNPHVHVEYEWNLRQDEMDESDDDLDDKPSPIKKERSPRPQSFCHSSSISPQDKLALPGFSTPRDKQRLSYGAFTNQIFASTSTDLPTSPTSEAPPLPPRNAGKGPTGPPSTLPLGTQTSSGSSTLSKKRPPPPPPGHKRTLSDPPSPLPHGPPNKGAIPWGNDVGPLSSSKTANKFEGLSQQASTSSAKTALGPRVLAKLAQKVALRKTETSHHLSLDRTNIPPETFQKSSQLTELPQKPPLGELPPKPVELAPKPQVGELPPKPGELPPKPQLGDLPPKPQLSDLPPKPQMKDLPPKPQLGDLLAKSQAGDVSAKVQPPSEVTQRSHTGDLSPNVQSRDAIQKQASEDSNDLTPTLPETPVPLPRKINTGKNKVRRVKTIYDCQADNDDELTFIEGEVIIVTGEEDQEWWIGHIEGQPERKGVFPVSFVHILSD
Sequence of Arf-GAP with SH3 domain, ANK repeat and PH domain-containing protein 1 (Mus musculus), Q9QWY8-2 R811A;P849A;P853A (Q9QWY8 other isoform, or with tags, fused parts or gaps R811A;P849A;P853A): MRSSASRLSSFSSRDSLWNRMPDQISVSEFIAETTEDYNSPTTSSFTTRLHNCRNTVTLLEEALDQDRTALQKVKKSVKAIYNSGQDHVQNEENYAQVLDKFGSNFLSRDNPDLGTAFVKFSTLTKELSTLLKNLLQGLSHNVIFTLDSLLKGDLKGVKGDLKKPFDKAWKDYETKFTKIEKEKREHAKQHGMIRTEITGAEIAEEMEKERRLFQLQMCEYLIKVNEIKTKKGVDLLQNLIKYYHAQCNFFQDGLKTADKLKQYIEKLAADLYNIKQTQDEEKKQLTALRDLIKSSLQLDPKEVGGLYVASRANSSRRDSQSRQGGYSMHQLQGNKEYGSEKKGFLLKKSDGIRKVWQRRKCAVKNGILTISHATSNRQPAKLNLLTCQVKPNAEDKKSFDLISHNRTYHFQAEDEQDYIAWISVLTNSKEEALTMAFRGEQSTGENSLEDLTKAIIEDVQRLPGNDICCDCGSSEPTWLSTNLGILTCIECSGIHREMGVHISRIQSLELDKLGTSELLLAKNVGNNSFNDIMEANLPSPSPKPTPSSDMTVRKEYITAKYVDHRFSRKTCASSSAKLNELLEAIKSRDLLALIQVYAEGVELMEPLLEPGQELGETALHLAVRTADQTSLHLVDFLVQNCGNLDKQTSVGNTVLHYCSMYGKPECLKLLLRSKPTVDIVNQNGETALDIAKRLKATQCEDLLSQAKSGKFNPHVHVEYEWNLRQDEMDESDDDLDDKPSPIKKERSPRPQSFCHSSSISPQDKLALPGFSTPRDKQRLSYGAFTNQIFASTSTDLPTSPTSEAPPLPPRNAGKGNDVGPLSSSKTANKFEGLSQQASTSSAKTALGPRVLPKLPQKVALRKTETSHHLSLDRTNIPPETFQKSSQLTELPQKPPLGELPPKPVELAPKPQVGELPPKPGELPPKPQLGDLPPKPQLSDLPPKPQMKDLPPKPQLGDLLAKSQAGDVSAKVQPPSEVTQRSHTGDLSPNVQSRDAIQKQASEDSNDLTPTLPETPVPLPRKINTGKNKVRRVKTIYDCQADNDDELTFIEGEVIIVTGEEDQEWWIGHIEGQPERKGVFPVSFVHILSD
Sequence of Arf-GAP with SH3 domain, ANK repeat and PH domain-containing protein 1 (Mus musculus), Q9QWY8-1 R811A;P910A;P913A (Q9QWY8 whole entry R811A/P910A/P913A, the tested form may be a part): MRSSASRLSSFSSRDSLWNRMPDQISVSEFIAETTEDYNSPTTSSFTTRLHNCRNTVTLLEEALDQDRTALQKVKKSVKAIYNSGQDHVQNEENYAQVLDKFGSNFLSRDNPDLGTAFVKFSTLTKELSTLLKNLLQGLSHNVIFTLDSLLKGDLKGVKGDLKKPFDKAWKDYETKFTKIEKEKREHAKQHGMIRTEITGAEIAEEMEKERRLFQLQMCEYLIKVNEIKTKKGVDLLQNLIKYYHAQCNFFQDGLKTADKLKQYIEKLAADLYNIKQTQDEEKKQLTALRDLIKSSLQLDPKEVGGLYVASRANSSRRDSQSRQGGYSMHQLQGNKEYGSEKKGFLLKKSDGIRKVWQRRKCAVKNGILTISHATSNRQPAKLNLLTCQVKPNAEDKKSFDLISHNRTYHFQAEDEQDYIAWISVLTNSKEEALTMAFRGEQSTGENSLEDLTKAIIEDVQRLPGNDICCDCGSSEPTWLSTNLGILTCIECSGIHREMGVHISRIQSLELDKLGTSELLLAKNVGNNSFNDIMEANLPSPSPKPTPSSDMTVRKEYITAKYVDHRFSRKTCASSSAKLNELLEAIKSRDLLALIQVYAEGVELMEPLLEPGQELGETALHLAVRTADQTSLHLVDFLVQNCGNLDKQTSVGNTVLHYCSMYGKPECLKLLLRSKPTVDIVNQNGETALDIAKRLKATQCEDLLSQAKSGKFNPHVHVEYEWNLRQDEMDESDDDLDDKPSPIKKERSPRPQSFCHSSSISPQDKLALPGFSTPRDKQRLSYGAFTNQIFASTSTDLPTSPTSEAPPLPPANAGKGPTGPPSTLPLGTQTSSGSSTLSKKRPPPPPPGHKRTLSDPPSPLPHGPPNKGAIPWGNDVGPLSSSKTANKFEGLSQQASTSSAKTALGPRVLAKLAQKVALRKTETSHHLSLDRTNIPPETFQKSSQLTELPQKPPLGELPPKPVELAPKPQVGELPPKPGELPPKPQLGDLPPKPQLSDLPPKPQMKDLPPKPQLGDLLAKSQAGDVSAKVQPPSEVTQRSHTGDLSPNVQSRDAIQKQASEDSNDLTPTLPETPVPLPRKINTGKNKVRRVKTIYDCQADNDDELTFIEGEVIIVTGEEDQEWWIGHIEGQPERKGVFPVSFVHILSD

| effect of a mutation on the interaction (src_chick SRC [1]) | effect of a mutation on the interaction (crk_human CRK) | effect of a mutation on the interaction (src_chick SRC [2]) | Substance |
| --- | --- | --- | --- |
| disrupting interaction |  |  | Arf-GAP with SH3 domain, ANK repeat and PH domain-containing protein 1 (Mus musculus), Q9QWY8-2 R811A;P849A;P853A |
|  | disrupting interaction |  | Arf-GAP with SH3 domain, ANK repeat and PH domain-containing protein 1 (Mus musculus), Q9QWY8-1 R811A;P910A;P913A |
|  | decreasing interaction | decreasing interaction | Arf-GAP with SH3 domain, ANK repeat and PH domain-containing protein 1 (Mus musculus), Q9QWY8-1 R811A |
|  | decreasing interaction | decreasing interaction | Arf-GAP with SH3 domain, ANK repeat and PH domain-containing protein 1 (Mus musculus), Q9QWY8-1 P910A;P913A |
